Assay results taken from article PMC6277001 (Molecular cancer research : MCR, 2018).

Molecular target: T1, GST-β-catenin^4A (UniProt P35222 1-781, S33A | S37A | T41A | S45A)
T1 sequence: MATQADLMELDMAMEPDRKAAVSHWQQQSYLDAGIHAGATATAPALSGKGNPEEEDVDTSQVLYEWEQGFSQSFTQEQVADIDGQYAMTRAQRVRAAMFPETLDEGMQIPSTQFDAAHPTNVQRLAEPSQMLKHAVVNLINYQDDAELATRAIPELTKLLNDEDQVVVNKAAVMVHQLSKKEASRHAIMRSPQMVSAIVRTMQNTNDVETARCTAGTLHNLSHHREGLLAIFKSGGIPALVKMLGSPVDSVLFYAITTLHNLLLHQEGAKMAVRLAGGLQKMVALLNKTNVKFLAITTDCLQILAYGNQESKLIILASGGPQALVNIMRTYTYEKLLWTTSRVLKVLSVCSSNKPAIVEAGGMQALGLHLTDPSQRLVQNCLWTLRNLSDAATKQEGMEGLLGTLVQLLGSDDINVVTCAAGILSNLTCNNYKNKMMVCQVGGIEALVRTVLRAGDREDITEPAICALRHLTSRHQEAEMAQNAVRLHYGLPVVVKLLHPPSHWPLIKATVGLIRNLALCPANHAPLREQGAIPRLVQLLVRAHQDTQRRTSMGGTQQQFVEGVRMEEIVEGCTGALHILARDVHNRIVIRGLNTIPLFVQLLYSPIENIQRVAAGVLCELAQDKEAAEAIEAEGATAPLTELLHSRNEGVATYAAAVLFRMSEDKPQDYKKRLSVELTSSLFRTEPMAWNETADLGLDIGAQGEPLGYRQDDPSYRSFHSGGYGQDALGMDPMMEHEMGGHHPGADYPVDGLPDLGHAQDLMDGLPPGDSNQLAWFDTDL
Experiment: pull-down

B1: 6xHis-FLYWCH1 (natural protein)
chain: MPLPEPSEQEGESVKAGQEPSPKPGTDVIPAAPRKPREFSKLVLLTASDQDEDGVGSKPQEVHCVLSLEMAGPATLASTLQILPVEEQGGVVQPALEMPEQKCSKLDAAAPQSLEFLRTPFGGRLLVLESFLYKQEKAVGDKVYWKCRQHAELGCRGRAITRGLRATVMRGHCHAPDEQGLEARRQREKLPSLALPEGLGEPQGPEGPGGRVEEPLEGVGPWQCPEEPEPTPGLVLSKPALEEEEAPRALSLLSLPPKKRSILGLGQARPLEFLRTCYGGSFLVHESFLYKREKAVGDKVYWTCRDHALHGCRSRAITQGQRVTVMRGHCHQPDMEGLEARRQQEKAVETLQAGQDGPGSQVDTLLRGVDSLLYRRGPGPLTLTRPRPRKRAKVEDQELPTQPEAPDEHQDMDADPGGPEFLKTPLGGSFLVYESFLYRREKAAGEKVYWTCRDQARMGCRSRAITQGRRVTVMRGHCHPPDLGGLEALRQREKRPNTAQRGSPGGPEFLKTPLGGSFLVYESFLYRREKAAGEKVYWTCRDQARMGCRSRAITQGRRVMVMRRHCHPPDLGGLEALRQREHFPNLAQWDSPDPLRPLEFLRTSLGGRFLVHESFLYRKEKAAGEKVYWMCRDQARLGCRSRAITQGHRIMVMRSHCHQPDLAGLEALRQRERLPTTAQQEDPEKIQVQLCFKTCSPESQQIYGDIKDVRLDGESQ
Does B1 bind?
Result: binds
